*1 amine or outer side, *2 acyl side, *3 side chain or, on linkers, in order; H or OH if unused. Bridges are numbered along the chain shown (N, C = ends). Primed or numbered codes have the meaning given here. [ ]: non-standard residue; d: D form. N(2-mercaptoethyl)Gly = O=C(CN(CCS[*:3])[*:1])[*:2]; FITC′ = fluorescein isothiocyanate; Orn = NCCC[C@H](N)C(=O)O; Aib = CC(C)(N)C(=O)O; GABA = NCCCC(=O)O
What was measured:
[1] = target: human somatostatin receptor subtype SSTR1 (human) (UniProt P30872); experiment: FACS, transfected HEK-293 cells
[2] = target: human somatostatin receptor subtype SSTR2 (human) (UniProt P30874); experiment: FACS, transfected HEK-293 cells
[3] = target: human somatostatin receptor subtype SSTR3 (human) (UniProt P32745); experiment: FACS, transfected HEK-293 cells
[4] = target: human somatostatin receptor subtype SSTR4 (human) (UniProt P31391); experiment: FACS, transfected HEK-293 cells
[5] = target: human somatostatin receptor subtype SSTR5 (human) (UniProt P35346); experiment: FACS, transfected HEK-293 cells
[6] = target: human somatostatin receptor subtype SSTR1 (human) (UniProt P30872); experiment: FACS, transfected HEK-293 cells; row normalised to highest
[7] = target: human somatostatin receptor subtype SSTR2 (human) (UniProt P30874); experiment: as above
[8] = target: human somatostatin receptor subtype SSTR3 (human) (UniProt P32745); experiment: as above
[9] = target: human somatostatin receptor subtype SSTR4 (human) (UniProt P31391); experiment: as above
[10] = target: human somatostatin receptor subtype SSTR5 (human) (UniProt P35346); experiment: as above
[11] = target: human somatostatin receptor subtype SSTR1 (human) (UniProt P30872); experiment: FACS, transfected HEK-293 cells; normalised to Compound 1
[12] = target: human somatostatin receptor subtype SSTR2 (human) (UniProt P30874); experiment: as above
[13] = target: human somatostatin receptor subtype SSTR3 (human) (UniProt P32745); experiment: as above
[14] = target: human somatostatin receptor subtype SSTR4 (human) (UniProt P31391); experiment: as above
[15] = target: human somatostatin receptor subtype SSTR5 (human) (UniProt P35346); experiment: as above

Chain of human somatostatin receptor subtype SSTR4 (human) (P31391 whole entry): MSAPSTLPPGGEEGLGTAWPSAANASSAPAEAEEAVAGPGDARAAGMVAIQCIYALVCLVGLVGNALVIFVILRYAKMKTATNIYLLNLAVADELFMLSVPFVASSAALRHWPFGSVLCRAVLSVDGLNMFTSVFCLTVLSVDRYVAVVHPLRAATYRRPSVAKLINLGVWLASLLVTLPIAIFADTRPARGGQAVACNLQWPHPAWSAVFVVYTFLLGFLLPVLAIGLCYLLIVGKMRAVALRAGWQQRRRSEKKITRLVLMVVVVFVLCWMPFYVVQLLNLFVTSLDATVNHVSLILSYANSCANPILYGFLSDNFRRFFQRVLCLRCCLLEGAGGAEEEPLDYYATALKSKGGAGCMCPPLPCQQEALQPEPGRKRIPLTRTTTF
Chain of human somatostatin receptor subtype SSTR3 (human) (P32745 whole entry): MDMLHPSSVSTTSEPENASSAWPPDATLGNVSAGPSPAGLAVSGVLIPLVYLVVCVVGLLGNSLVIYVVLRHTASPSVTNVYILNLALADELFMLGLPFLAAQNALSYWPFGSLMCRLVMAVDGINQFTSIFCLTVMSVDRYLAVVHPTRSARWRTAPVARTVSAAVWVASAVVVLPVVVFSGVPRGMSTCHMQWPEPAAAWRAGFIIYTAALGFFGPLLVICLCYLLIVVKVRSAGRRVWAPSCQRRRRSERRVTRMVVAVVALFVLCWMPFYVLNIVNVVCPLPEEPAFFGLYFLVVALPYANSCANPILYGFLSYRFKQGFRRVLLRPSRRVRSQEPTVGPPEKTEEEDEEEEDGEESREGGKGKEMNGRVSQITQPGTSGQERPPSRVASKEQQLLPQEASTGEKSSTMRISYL
Chain of human somatostatin receptor subtype SSTR1 (human) (P30872 whole entry): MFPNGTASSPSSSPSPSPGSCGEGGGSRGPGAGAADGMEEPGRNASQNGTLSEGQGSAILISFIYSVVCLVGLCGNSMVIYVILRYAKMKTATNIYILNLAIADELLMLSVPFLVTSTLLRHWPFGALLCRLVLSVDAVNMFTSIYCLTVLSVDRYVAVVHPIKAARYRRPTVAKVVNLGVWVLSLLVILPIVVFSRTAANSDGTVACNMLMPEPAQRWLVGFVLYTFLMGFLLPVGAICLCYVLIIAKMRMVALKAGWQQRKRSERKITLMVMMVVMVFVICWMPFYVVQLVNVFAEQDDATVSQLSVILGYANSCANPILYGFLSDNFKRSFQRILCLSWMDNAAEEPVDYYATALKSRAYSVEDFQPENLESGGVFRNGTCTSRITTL
Chain of human somatostatin receptor subtype SSTR2 (human) (P30874 whole entry): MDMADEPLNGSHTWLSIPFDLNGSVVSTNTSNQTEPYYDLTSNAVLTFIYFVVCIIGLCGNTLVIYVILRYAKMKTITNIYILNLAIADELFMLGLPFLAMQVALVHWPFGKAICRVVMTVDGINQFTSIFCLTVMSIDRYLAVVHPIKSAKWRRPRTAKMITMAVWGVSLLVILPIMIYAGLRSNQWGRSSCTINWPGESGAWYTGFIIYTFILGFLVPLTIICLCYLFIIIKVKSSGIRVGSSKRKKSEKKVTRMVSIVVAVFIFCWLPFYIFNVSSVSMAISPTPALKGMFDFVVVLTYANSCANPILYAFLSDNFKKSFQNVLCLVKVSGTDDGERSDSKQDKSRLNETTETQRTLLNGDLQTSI
Chain of human somatostatin receptor subtype SSTR5 (human) (P35346 whole entry): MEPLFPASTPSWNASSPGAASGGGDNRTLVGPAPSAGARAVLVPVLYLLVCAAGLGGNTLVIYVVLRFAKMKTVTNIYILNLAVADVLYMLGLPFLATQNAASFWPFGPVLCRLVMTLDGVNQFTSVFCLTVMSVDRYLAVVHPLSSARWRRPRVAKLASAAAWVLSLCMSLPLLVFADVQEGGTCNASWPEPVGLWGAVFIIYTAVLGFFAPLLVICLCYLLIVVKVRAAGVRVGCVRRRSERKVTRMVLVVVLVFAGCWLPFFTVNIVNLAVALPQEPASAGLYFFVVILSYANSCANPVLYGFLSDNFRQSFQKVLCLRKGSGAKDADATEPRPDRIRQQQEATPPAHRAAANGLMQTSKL

Binder | Relative binding affinity [1] | Relative binding affinity [2] | Relative binding affinity [3] | Relative binding affinity [4] | Relative binding affinity [5] | Adjusted binding affinity [6] | Adjusted binding affinity [7] | Adjusted binding affinity [8] | Adjusted binding affinity [9] | Adjusted binding affinity [10] | Binding affinity relative to Compound 1 (% of Compound 1) [11] | Binding affinity relative to Compound 1 (% of Compound 1) [12] | Binding affinity relative to Compound 1 (% of Compound 1) [13] | Binding affinity relative to Compound 1 (% of Compound 1) [14] | Binding affinity relative to Compound 1 (% of Compound 1) [15]
{FITC′-GABA}-[dF]CRFF[dW]KTF[N(2-mercaptoethyl)Gly]-NH2 (disulfide 2-10) [Compound 8] | 2.6% | 4.5% | 11.5% | 31.5% | 27.5% | 0.08 | 0.14 | 0.37 | 1 | 0.87 | 78 | 69 | 68 | 140 | 96
XCFWXKTFX (FITC-GABA-DPhe-Cys*-Phe-Trp-DTrp-Lys-Thr-Phe-GlyS2*-NH2 (* = S-S bond; GlyS2 = N-thioethyl glycine; FITC-GABA on the N-terminal amine; C-terminal amide)) [Compound 1] | 3% | 6.5% | 17% | 22.5% | 28.5% | 0.11 | 0.23 | 0.6 | 0.79 | 1 | 100 | 100 | 100 | 100 | 100
{FITC′-GABA}-[dF]RCY[dW]KTF[N(2-mercaptoethyl)Gly]-NH2 (disulfide 3-9) [Compound 6] |  | 1.5% | 22.5% | 1.5% | 0.5% | 0 | 0.07 | 1 | 0.07 | 0.02 | 0 | 23 | 132 | 7 | 2
XCFWXXTFX (FITC-GABA-DPhe-Cys*-Phe-Trp-DTrp-Orn-Thr-Phe-GlyS2*-NH2 (* = S-S bond; GlyS2 = N-thioethyl glycine; Orn = ornithine; C-terminal amide)) [Compound 3] | 3.6% | 4.3% | 15.7% | 13.3% | 9.3% | 0.23 | 0.27 | 1 | 0.85 | 0.59 | 120 | 66 | 92 | 59 | 33
{FITC′-GABA}-[dF]RCF[dW]KTF[N(2-mercaptoethyl)Gly]-NH2 (disulfide 3-9) [Compound 2] | 5% | 5% | 4% | 4% | 5% | 1 | 1 | 0.8 | 0.8 | 1 | 167 | 77 | 24 | 18 | 18
{FITC′-GABA}-[dF]CY[dW][Orn]TF[N(2-mercaptoethyl)Gly]-NH2 (disulfide 2-8) [Compound 7] |  | 1% | 2% | 1.5% | 1% | 0 | 0.5 | 1 | 0.75 | 0.5 | 0 | 15 | 12 | 7 | 4
{FITC′-GABA}-[dF]RCF[dW][Orn]TF[N(2-mercaptoethyl)Gly]-NH2 (disulfide 3-9) [Compound 5] |  | 1% | 3% | 1% |  | 0 | 0.33 | 1 | 0.33 | 0 | 0 | 15 | 18 | 4 | 0

Now from value to binder:

Relative binding affinity [1] | Relative binding affinity [2] | Relative binding affinity [3] | Relative binding affinity [4] | Relative binding affinity [5] | Adjusted binding affinity [6] | Adjusted binding affinity [7] | Adjusted binding affinity [8] | Adjusted binding affinity [9] | Adjusted binding affinity [10] | Binding affinity relative to Compound 1 (% of Compound 1) [11] | Binding affinity relative to Compound 1 (% of Compound 1) [12] | Binding affinity relative to Compound 1 (% of Compound 1) [13] | Binding affinity relative to Compound 1 (% of Compound 1) [14] | Binding affinity relative to Compound 1 (% of Compound 1) [15] | Binder
1% |  | 6% | 4% | 9% | 0.11 | 0 | 0.67 | 0.44 | 1 | 33 | 0 | 35 | 18 | 32 | {FITC′-GABA}-[dF]CFW[dW][Aib]TF[N(2-mercaptoethyl)Gly]-NH2 (disulfide 2-9) [Compound 13]
 |  |  | 29% | 41% |  |  |  | 0.71 | 1 |  |  |  | 129 | 144 | XXFWXKTFX (FITC-GABA-DPhe-HCys*-Phe-Trp-DTrp-Lys-Thr-Phe-GlyS2*-NH2 (* = S-S bond; HCys = homocysteine; GlyS2 = N-thioethyl glycine; C-terminal amide)) [Compound 11]
 |  |  | 3% | 2% |  |  |  | 1 | 0.67 |  |  |  | 13 | 7 | XCFWXXTFX (FITC-GABA-DPhe-Cys*-Phe-Trp-DTrp-LysAc-Thr-Phe-GlyS2*-NH2 (* = S-S bond; LysAc = acetyllysine; GlyS2 = N-thioethyl glycine; C-terminal amide)) [Compound 14]
 | 2.5% | 12% | 4.5% | 7% | 0 | 0.21 | 1 | 0.38 | 0.58 | 0 | 38 | 71 | 20 | 25 | XCFWXXTFX (FITC-GABA-DPhe-Cys*-Phe-Trp-DTrp-HomoLys-Thr-Phe-GlyS2*-NH2 (* = S-S bond; HomoLys = homolysine; GlyS2 = N-thioethyl glycine; C-terminal amide)) [Compound 16]

Reference: patent US20170298113A1 (TEL HASHOMER MEDICAL RESEARCH INFRASTRUCTURE AND SERVICES, published 2017)
